From the supplement of paper PMC6757056
± gives the standard deviation of the averaged measurements.

B1: library; a variant is named by its letters at N, in order (parent)
chain: GCUGUCACCGGUGUAUUACCCUAGUGGUCGACCGGUCUGAUGAGUCUNNNNNNAGACGAAACAGC

How the values were obtained:
hypoxanthine [1] = variants of: B1; assay: normalized RNA/DNA level with ligand (relative to sTRSVctl = 100) (log10 (% of sTRSVctl)); ligand: hypoxanthine (xanthine aptamer); higher = less ribozyme self-cleavage, higher mRNA level; details: ligand concentration (+) RNA-Seq: 5 mM, HEK293T, reporter: mCherry (pCS4076), ligand present: yes
Procedure, shortened: (§1)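 HEK293T cells were transfected with library plasmids carrying ribozyme switches linked to an mCherry reporter, or an eGFP reporter in some ligand experiments, at 4 µg per well of a 6-well plate, with any ligand added 1 h beforehand. After 72 h, total RNA was extracted with EDTA, reverse-transcribed, amplified, barcoded and sequenced. RNA level was defined as RNA reads over DNA reads, normalized to a spiked-in non-cleaving sequence or to the top-ranked sequences. That value was multiplied by 100 and converted to log10, the top set was 25 sequences, and only sequences with ≥100 DNA reads were retained.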

hypoxanthine [2] = variants of: B1; assay: normalized RNA/DNA level without ligand (relative to sTRSVctl = 100) (log10 (% of sTRSVctl)); ligand: hypoxanthine (xanthine aptamer); higher = less ribozyme self-cleavage, higher mRNA level; details: HEK293T, reporter: mCherry (pCS4076), ligand present: no
Procedure, shortened: as §1

Variant	normalized RNA/DNA level with ligand (log10) (hypoxanthine [1])	normalized RNA/DNA level without ligand (log10) (hypoxanthine [2])
GCUGUCACCGGUGUAUUACCCUAGUGGUCGACCGGUCUGAUGAGUCUCAGACUAGACGAAACAGC [CAGACU]	1.92 ± 0.043	1.92 ± 0.022
GCUGUCACCGGUGUAUUACCCUAGUGGUCGACCGGUCUGAUGAGUCUGCUACAAGACGAAACAGC [GCUACA]	1.95 ± 0.02	1.85 ± 0.025
GCUGUCACCGGUGUAUUACCCUAGUGGUCGACCGGUCUGAUGAGUCUACCCAUAGACGAAACAGC [ACCCAU]	1.93 ± 0.026	1.79 ± 0.051
GCUGUCACCGGUGUAUUACCCUAGUGGUCGACCGGUCUGAUGAGUCUGAACGUAGACGAAACAGC [GAACGU]	1.9 ± 0.037	1.688 ± 0.014
GCUGUCACCGGUGUAUUACCCUAGUGGUCGACCGGUCUGAUGAGUCUUGUCAGAGACGAAACAGC [UGUCAG]	1.89 ± 0.03	1.74 ± 0.07
GCUGUCACCGGUGUAUUACCCUAGUGGUCGACCGGUCUGAUGAGUCUUUCCUUAGACGAAACAGC [UUCCUU]	1.92 ± 0.081	1.891 ± 0.0051
GCUGUCACCGGUGUAUUACCCUAGUGGUCGACCGGUCUGAUGAGUCUCGGCUGAGACGAAACAGC [CGGCUG]	1.97 ± 0.037	1.889 ± 0.0029
GCUGUCACCGGUGUAUUACCCUAGUGGUCGACCGGUCUGAUGAGUCUAGUCUCAGACGAAACAGC [AGUCUC]	1.94 ± 0.037	1.89 ± 0.026
GCUGUCACCGGUGUAUUACCCUAGUGGUCGACCGGUCUGAUGAGUCUCCUUUGAGACGAAACAGC [CCUUUG]	1.96 ± 0.09	1.81 ± 0.076
GCUGUCACCGGUGUAUUACCCUAGUGGUCGACCGGUCUGAUGAGUCUAGGCCCAGACGAAACAGC [AGGCCC]	1.99 ± 0.038	1.95 ± 0.044
GCUGUCACCGGUGUAUUACCCUAGUGGUCGACCGGUCUGAUGAGUCUUUUCGAAGACGAAACAGC [UUUCGA]	1.953 ± 0.013	1.915 ± 0.006
GCUGUCACCGGUGUAUUACCCUAGUGGUCGACCGGUCUGAUGAGUCUGUGUCUAGACGAAACAGC [GUGUCU]	1.95 ± 0.04	1.85 ± 0.019
GCUGUCACCGGUGUAUUACCCUAGUGGUCGACCGGUCUGAUGAGUCUUGGCCGAGACGAAACAGC [UGGCCG]	2.015 ± 0.00026	1.956 ± 0.006
GCUGUCACCGGUGUAUUACCCUAGUGGUCGACCGGUCUGAUGAGUCUGGGCCCAGACGAAACAGC [GGGCCC]	1.95 ± 0.02	1.98 ± 0.029
GCUGUCACCGGUGUAUUACCCUAGUGGUCGACCGGUCUGAUGAGUCUCUGCACAGACGAAACAGC [CUGCAC]	1.94 ± 0.057	1.869 ± 0.018
GCUGUCACCGGUGUAUUACCCUAGUGGUCGACCGGUCUGAUGAGUCUGCCUGCAGACGAAACAGC [GCCUGC]	1.977 ± 0.012	1.86 ± 0.045
GCUGUCACCGGUGUAUUACCCUAGUGGUCGACCGGUCUGAUGAGUCUCUGUGCAGACGAAACAGC [CUGUGC]	1.907 ± 0.018	1.86 ± 0.043
GCUGUCACCGGUGUAUUACCCUAGUGGUCGACCGGUCUGAUGAGUCUCGAGUGAGACGAAACAGC [CGAGUG]	1.92 ± 0.0018	1.76 ± 0.04
GCUGUCACCGGUGUAUUACCCUAGUGGUCGACCGGUCUGAUGAGUCUGCGCAAAGACGAAACAGC [GCGCAA]	1.873 ± 0.014	1.52 ± 0.023
GCUGUCACCGGUGUAUUACCCUAGUGGUCGACCGGUCUGAUGAGUCUCACCAUAGACGAAACAGC [CACCAU]	1.92 ± 0.021	1.8 ± 0.024
GCUGUCACCGGUGUAUUACCCUAGUGGUCGACCGGUCUGAUGAGUCUCUAUCGAGACGAAACAGC [CUAUCG]	1.956 ± 0.016	1.94 ± 0.033

Variant	normalized RNA/DNA level with ligand (log10) (hypoxanthine [1])	normalized RNA/DNA level without ligand (log10) (hypoxanthine [2])
GCUGUCACCGGUGUAUUACCCUAGUGGUCGACCGGUCUGAUGAGUCUUGGUGGAGACGAAACAGC [UGGUGG]	1.93 ± 0.038	1.596 ± 0.0083
GCUGUCACCGGUGUAUUACCCUAGUGGUCGACCGGUCUGAUGAGUCUUGCUCUAGACGAAACAGC [UGCUCU]	1.91 ± 0.042	1.949 ± 0.017
GCUGUCACCGGUGUAUUACCCUAGUGGUCGACCGGUCUGAUGAGUCUCGGCACAGACGAAACAGC [CGGCAC]	1.923 ± 0.016	1.733 ± 0.0076
GCUGUCACCGGUGUAUUACCCUAGUGGUCGACCGGUCUGAUGAGUCUCUCCGGAGACGAAACAGC [CUCCGG]	1.93 ± 0.029	1.95 ± 0.065
GCUGUCACCGGUGUAUUACCCUAGUGGUCGACCGGUCUGAUGAGUCUCGUUUGAGACGAAACAGC [CGUUUG]	1.96 ± 0.067	1.864 ± 0.0052
GCUGUCACCGGUGUAUUACCCUAGUGGUCGACCGGUCUGAUGAGUCUACCGGCAGACGAAACAGC [ACCGGC]	2.001 ± 0.012	1.96 ± 0.073
GCUGUCACCGGUGUAUUACCCUAGUGGUCGACCGGUCUGAUGAGUCUACCGGUAGACGAAACAGC [ACCGGU]	1.99 ± 0.076	1.844 ± 0.0038
GCUGUCACCGGUGUAUUACCCUAGUGGUCGACCGGUCUGAUGAGUCUCUCCAGAGACGAAACAGC [CUCCAG]	1.89 ± 0.068	1.73 ± 0.057
GCUGUCACCGGUGUAUUACCCUAGUGGUCGACCGGUCUGAUGAGUCUUCUCUCAGACGAAACAGC [UCUCUC]	2.025 ± 0.016	1.94 ± 0.09
GCUGUCACCGGUGUAUUACCCUAGUGGUCGACCGGUCUGAUGAGUCUCAUUGUAGACGAAACAGC [CAUUGU]	1.94 ± 0.049	1.877 ± 0.0085
GCUGUCACCGGUGUAUUACCCUAGUGGUCGACCGGUCUGAUGAGUCUGGUUAAAGACGAAACAGC [GGUUAA]	1.93 ± 0.062	1.77 ± 0.072
GCUGUCACCGGUGUAUUACCCUAGUGGUCGACCGGUCUGAUGAGUCUCCCGUCAGACGAAACAGC [CCCGUC]	2.027 ± 0.018	2.021 ± 0.019
GCUGUCACCGGUGUAUUACCCUAGUGGUCGACCGGUCUGAUGAGUCUACCGCAAGACGAAACAGC [ACCGCA]	1.93 ± 0.082	1.845 ± 0.017
GCUGUCACCGGUGUAUUACCCUAGUGGUCGACCGGUCUGAUGAGUCUCGCGUCAGACGAAACAGC [CGCGUC]	1.97 ± 0.075	2.01 ± 0.061
GCUGUCACCGGUGUAUUACCCUAGUGGUCGACCGGUCUGAUGAGUCUUGUUACAGACGAAACAGC [UGUUAC]	1.912 ± 0.0067	1.836 ± 0.0054
GCUGUCACCGGUGUAUUACCCUAGUGGUCGACCGGUCUGAUGAGUCUAACAUUAGACGAAACAGC [AACAUU]	1.91 ± 0.053	1.873 ± 0.011
GCUGUCACCGGUGUAUUACCCUAGUGGUCGACCGGUCUGAUGAGUCUAUCCACAGACGAAACAGC [AUCCAC]	1.95 ± 0.056	1.8068 ± 0.00014
GCUGUCACCGGUGUAUUACCCUAGUGGUCGACCGGUCUGAUGAGUCUGCAUAGAGACGAAACAGC [GCAUAG]	1.862 ± 0.011	1.43 ± 0.078
GCUGUCACCGGUGUAUUACCCUAGUGGUCGACCGGUCUGAUGAGUCUAGAGACAGACGAAACAGC [AGAGAC]	1.88 ± 0.028	1.772 ± 0.017
GCUGUCACCGGUGUAUUACCCUAGUGGUCGACCGGUCUGAUGAGUCUAGACUGAGACGAAACAGC [AGACUG]	1.89 ± 0.045	1.58 ± 0.036
GCUGUCACCGGUGUAUUACCCUAGUGGUCGACCGGUCUGAUGAGUCUAUCGGCAGACGAAACAGC [AUCGGC]	1.97 ± 0.099	1.86 ± 0.029
